The values that follow come from paper PMC3819363, “Post-Transcriptional Regulator Hfq Binds Catalase HPII: Crystal Structure of the Complex” (PLoS ONE, 2013).

This data set concerns the molecule itself. Description: SDS-PAGE; samples in SDS buffer on a polyacrylamide gel; bands of the dissolved crystals identified by PMF MALDI-TOF; crystals heated at ~95°C for 5 min.

B1: catalase HPII (endogenous, Escherichia coli) (enzyme, Escherichia coli (endogenous in E. coli), UniProt P21179 1-753, looked up)
chain: MSQHNEKNPHQHQSPLHDSSEAKPGMDSLAPEDGSHRPAAEPTPPGAQPTAPGSLKAPDTRNEKLNSLEDVRKGSENYALTTNQGVRIADDQNSLRAGSRGPTLLEDFILREKITHFDHERIPERIVHARGSAAHGYFQPYKSLSDITKADFLSDPNKITPVFVRFSTVQGGAGSADTVRDIRGFATKFYTEEGIFDLVGNNTPIFFIQDAHKFPDFVHAVKPEPHWAIPQGQSAHDTFWDYVSLQPETLHNVMWAMSDRGIPRSYRTMEGFGIHTFRLINAEGKATFVRFHWKPLAGKASLVWDEAQKLTGRDPDFHRRELWEAIEAGDFPEYELGFQLIPEEDEFKFDFDLLDPTKLIPEELVPVQRVGKMVLNRNPDNFFAENEQAAFHPGHIVPGLDFTNDPLLQGRLFSYTDTQISRLGGPNFHEIPINRPTCPYHNFQRDGMHRMGIDTNPANYEPNSINDNWPRETPPGPKRGGFESYQERVEGNKVRERSPSFGEYYSHPRLFWLSQTPFEQRHIVDGFSFELSKVVRPYIRERVVDQLAHIDLTLAQAVAKNLGIELTDDQLNITPPPDVNGLKKDPSLSLYAIPDGDVKGRVVAILLNDEVRSADLLAILKALKAKGVHAKLLYSRMGEVTADDGTVLPIAATFAGAPSLTVDAVIVPCGNIADIADNGDANYYLMEAYKHLKPIALAGDARKFKATIKIADQGEEGIVEADSADGSFMDELLTLMAAHRVWSRIPKIDKIPA
notes: catalase HPII of Escherichia coli, product of the katE gene, endogenous protein, printed molecular weight 84 kDa; residues 27-753 and one heme resolved in the map; Homotetramer, one heme per subunit; also called HPII tetramer; source: endogenous, E. coli overexpressing PomAB mutants
Take B1: the stoichiometry N (as a rule, a count of units in the complex or per binding partner) was found to be 2 subunits.
